Reference: the supplement of paper PMC7877785
± gives the uncertainty stated by the source.

Test: self-splicing fitness, log relative to wild type (ln ratio); higher = more splicing; Tetrahymena group I intron in knt gene, E. coli kanamycin selection, DiMSum; sequences stand for … in CUCUCU…GGAGGGAAAAGUUAUCAGGCAUGCACCUGGUAGCUAGUCUUUAAACCAAUAGAUUGCAUCGGUUUAAAAGGCAAGACCGUCAAAUUGCGGGAAAGGGGUCAACAGCCGUUCAGUACCAAGUCUCAGGGGAAACUUUGAGAUGGCCUUGCAAAGGGUAUGGUAAUAAGCUGACGGACAUGGUCCUAACCACGCAGCCAAGUCCUAAGUCAACAGAUCUUCUGUUGAUAUGGAUGCAGUUCACAGACUAAAUGUCGGUCGGGGAAGAUGUAUUCUUCUCAUAAGAUAUAGUCGGACCUCUCCUUAAUGGGAGCUAGCGGAUGAAGUGAUGCAACACUGGAGCCGCUGGGAACUAAUUUGUAUGCGAAAGUAUAUUGAUUAGUUUUGGAGUACUCGUGGUCG
Outline: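 Six replicate transformations of E. coli BL21(DE3) with a pET-22b(+) library were grown overnight at 37°C or 30°C. The library randomised all eight P1ex-region intron nucleotides, the intron lying in the knt kanamycin-resistance gene, and plates were LB agar with or without 25 μg/mL kanamycin plus 100 μg/mL carbenicillin, 50 μM IPTG and 0.2% rhamnose. Pooled colonies were amplicon-sequenced on an Illumina HiSeq 2500, and fitness is the DiMSum error-weighted combination of wild-type-normalised replicate fold changes, kanamycin versus none.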

Sequence	self-splicing fitness (ln) (30 °C)	self-splicing fitness (ln) (37 °C)
AAAUAGCAAUAUUACGAUGG	-2.87 ± 0.17	-1.97 ± 0.2
UUCUAGCAAUAUUACGCAUA	-0.852 ± 0.12	-0.774 ± 0.14
CGCCAGCAAUAUUACGCCUU	-3.11 ± 0.27	-2.29 ± 0.26
GAUUAGCAAUAUUACGUCUU	-0.485 ± 0.086	-0.732 ± 0.088
CUAGAGCAAUAUUACGGCGA	-3.28 ± 0.32	
GCGUAGCAAUAUUACGACUC	0.552 ± 0.19	-0.215 ± 0.26
GUGAAGCAAUAUUACGUGGU	-4.17 ± 0.24	-1.61 ± 0.14
GUCCAGCAAUAUUACGUAUA	-1.37 ± 0.073	-0.787 ± 0.073
AGUCAGCAAUAUUACGGCGU	0.0847 ± 0.073	0.74 ± 0.096
CUGCAGCAAUAUUACGGCAC	-3.13 ± 0.14	-0.857 ± 0.12
UCACAGCAAUAUUACGGAGU	-4.75 ± 0.33	-3.4 ± 0.23
UGGCAGCAAUAUUACGGCAA	0.308 ± 0.22	0.661 ± 0.19
AGUGAGCAAUAUUACGACUC	-3.04 ± 0.37	
AUCCAGCAAUAUUACGUAAA	-1.3 ± 0.064	-0.843 ± 0.093
AAAGAGCAAUAUUACGUCUA	-1.12 ± 0.093	-0.882 ± 0.093
AUUGAGCAAUAUUACGACAU	-0.372 ± 0.013	-0.153 ± 0.033
AGGAAGCAAUAUUACGAUGG	-2.53 ± 0.16	-1.88 ± 0.21
GGCGAGCAAUAUUACGAGUC	-1.61 ± 0.36	
UGCGAGCAAUAUUACGACUA	-1.26 ± 0.23	-1.09 ± 0.28
CUAUAGCAAUAUUACGUAUG	-1.52 ± 0.085	-0.647 ± 0.099
UUAGAGCAAUAUUACGGCAG	-1.01 ± 0.18	-0.707 ± 0.24
UGUGAGCAAUAUUACGGCAC	-3.21 ± 0.23	-2.21 ± 0.23
GGUGAGCAAUAUUACGAACC		-2.72 ± 0.22
ACAGAGCAAUAUUACGUAAA	-3.71 ± 0.16	-2.09 ± 0.13
GUGUAGCAAUAUUACGUAUC	-1.01 ± 0.29	
UCACAGCAAUAUUACGGCAU	-4.11 ± 0.22	-2.26 ± 0.14

Sequence	self-splicing fitness (ln) (30 °C)	self-splicing fitness (ln) (37 °C)
CCUAAGCAAUAUUACGCACG	-3.1 ± 0.41	-1.46 ± 0.23
AGACAGCAAUAUUACGUACG	-1.22 ± 0.07	-0.121 ± 0.094
UCGUAGCAAUAUUACGCGCU	-2.31 ± 0.19	-1.78 ± 0.22
CCUUAGCAAUAUUACGAUGU	-2.14 ± 0.13	-1.49 ± 0.16
CUACAGCAAUAUUACGGGCC		-3.03 ± 0.47
GCCUAGCAAUAUUACGGGCC	-4.2 ± 0.26	-3.41 ± 0.39
UCGUAGCAAUAUUACGUCCA	-0.914 ± 0.16	-0.15 ± 0.17
AUCAAGCAAUAUUACGUAAU	-1.1 ± 0.056	-0.247 ± 0.081
ACUCAGCAAUAUUACGUCUC	-1.8 ± 0.072	-0.51 ± 0.083
UCCUAGCAAUAUUACGCACU	-1.17 ± 0.12	-0.784 ± 0.12
GACCAGCAAUAUUACGAUUG	-2.1 ± 0.073	-1.08 ± 0.084
CCUUAGCAAUAUUACGCCAU	-2.87 ± 0.48	-1.57 ± 0.29
UAUCAGCAAUAUUACGUCCA	-0.388 ± 0.12	-0.0388 ± 0.13
GUUAAGCAAUAUUACGGGAA	-1.87 ± 0.34	-1.86 ± 0.29
GGCAAGCAAUAUUACGUGUA	-0.7 ± 0.049	-0.0721 ± 0.057
UAGGAGCAAUAUUACGGAAU	-4.06 ± 0.36	-2.51 ± 0.33
ACUGAGCAAUAUUACGGAGG	-2.97 ± 0.18	-2.76 ± 0.25
AGUCAGCAAUAUUACGUACC	-0.711 ± 0.15	0.605 ± 0.21
GCCGAGCAAUAUUACGCGUU	-1.62 ± 0.076	-0.778 ± 0.095
CCCCAGCAAUAUUACGGAAA	-4.13 ± 0.34	-1.64 ± 0.16
AUAAAGCAAUAUUACGGUAU	-0.836 ± 0.068	-0.0795 ± 0.1
UAAAAGCAAUAUUACGGGAA	-2.63 ± 0.2	-1.18 ± 0.12
UUCUAGCAAUAUUACGACAG	-1.13 ± 0.22	-1.59 ± 0.32
AGCUAGCAAUAUUACGACAA	-1.68 ± 0.18	-1.34 ± 0.15
CUACAGCAAUAUUACGCAUC	-3.65 ± 0.27	-1.5 ± 0.16
CGAAAGCAAUAUUACGACUU	-1.64 ± 0.12	-0.99 ± 0.14

Sequence	self-splicing fitness (ln) (30 °C)	self-splicing fitness (ln) (37 °C)
GCGGAGCAAUAUUACGUUAG	-2.8 ± 0.23	-1.99 ± 0.35
UAUUAGCAAUAUUACGUUAU	-2.68 ± 0.19	-2.2 ± 0.22
ACUCAGCAAUAUUACGUUCG	-0.678 ± 0.086	-0.331 ± 0.11
UGUAAGCAAUAUUACGCGAG	-3.32 ± 0.27	-1.56 ± 0.17
ACCGAGCAAUAUUACGCUCA	-1.14 ± 0.13	-0.577 ± 0.2
UCCAAGCAAUAUUACGUGCC	-3.87 ± 0.36	-2.28 ± 0.26
UCCGAGCAAUAUUACGAUAG	-3.72 ± 0.24	-2.22 ± 0.2
AGUCAGCAAUAUUACGAUAU	-0.289 ± 0.096	0.475 ± 0.11
UCGUAGCAAUAUUACGCCCG	-0.251 ± 0.19	-0.113 ± 0.17
CCAUAGCAAUAUUACGAGUU	-3.76 ± 0.36	-2.1 ± 0.31
CUACAGCAAUAUUACGCAGA	-3.97 ± 0.28	-3.07 ± 0.22
GGAUAGCAAUAUUACGUUCU	-1.88 ± 0.15	-2.27 ± 0.24
ACCAAGCAAUAUUACGCGAU	-2.1 ± 0.079	-1.17 ± 0.11
GCGCAGCAAUAUUACGGGUU	-1.71 ± 0.042	-0.67 ± 0.053
GUCGAGCAAUAUUACGUGUC	-2.18 ± 0.08	-1.6 ± 0.077
CCGCAGCAAUAUUACGCCGU	-3.34 ± 0.27	-2.26 ± 0.22
UGCCAGCAAUAUUACGUAUU	-2.8 ± 0.13	-2.56 ± 0.16
UCCGAGCAAUAUUACGUCAG	-3.62 ± 0.24	-1.07 ± 0.17
AUCUAGCAAUAUUACGCCAU	-2.72 ± 0.2	-1.05 ± 0.15
GACUAGCAAUAUUACGGUUC	-3.18 ± 0.17	-2.7 ± 0.32
GCGGAGCAAUAUUACGGACC	-1.77 ± 0.34	
UAGGAGCAAUAUUACGUAUU	-1.97 ± 0.36	-2.45 ± 0.41
CAGUAGCAAUAUUACGUGGC	-2.97 ± 0.28	-2.36 ± 0.29
GUAAAGCAAUAUUACGUCUU	-0.455 ± 0.1	0.291 ± 0.12
UACGAGCAAUAUUACGUAGA	-3.47 ± 0.17	-2.77 ± 0.29
